{"source": "patent EP4663659A1", "about": "(Merck Patent GmbH, dated 2025)", "target": "T1, human MUC-1 on cells (human, UniProt P15941 24-1255)", "T1 construct": "Endogenous on human tumour cell lines and normal kidney and lung cells; also called hMUC-1; mucin 1", "T1 sequence (P15941 24-1255 limits assumed)": "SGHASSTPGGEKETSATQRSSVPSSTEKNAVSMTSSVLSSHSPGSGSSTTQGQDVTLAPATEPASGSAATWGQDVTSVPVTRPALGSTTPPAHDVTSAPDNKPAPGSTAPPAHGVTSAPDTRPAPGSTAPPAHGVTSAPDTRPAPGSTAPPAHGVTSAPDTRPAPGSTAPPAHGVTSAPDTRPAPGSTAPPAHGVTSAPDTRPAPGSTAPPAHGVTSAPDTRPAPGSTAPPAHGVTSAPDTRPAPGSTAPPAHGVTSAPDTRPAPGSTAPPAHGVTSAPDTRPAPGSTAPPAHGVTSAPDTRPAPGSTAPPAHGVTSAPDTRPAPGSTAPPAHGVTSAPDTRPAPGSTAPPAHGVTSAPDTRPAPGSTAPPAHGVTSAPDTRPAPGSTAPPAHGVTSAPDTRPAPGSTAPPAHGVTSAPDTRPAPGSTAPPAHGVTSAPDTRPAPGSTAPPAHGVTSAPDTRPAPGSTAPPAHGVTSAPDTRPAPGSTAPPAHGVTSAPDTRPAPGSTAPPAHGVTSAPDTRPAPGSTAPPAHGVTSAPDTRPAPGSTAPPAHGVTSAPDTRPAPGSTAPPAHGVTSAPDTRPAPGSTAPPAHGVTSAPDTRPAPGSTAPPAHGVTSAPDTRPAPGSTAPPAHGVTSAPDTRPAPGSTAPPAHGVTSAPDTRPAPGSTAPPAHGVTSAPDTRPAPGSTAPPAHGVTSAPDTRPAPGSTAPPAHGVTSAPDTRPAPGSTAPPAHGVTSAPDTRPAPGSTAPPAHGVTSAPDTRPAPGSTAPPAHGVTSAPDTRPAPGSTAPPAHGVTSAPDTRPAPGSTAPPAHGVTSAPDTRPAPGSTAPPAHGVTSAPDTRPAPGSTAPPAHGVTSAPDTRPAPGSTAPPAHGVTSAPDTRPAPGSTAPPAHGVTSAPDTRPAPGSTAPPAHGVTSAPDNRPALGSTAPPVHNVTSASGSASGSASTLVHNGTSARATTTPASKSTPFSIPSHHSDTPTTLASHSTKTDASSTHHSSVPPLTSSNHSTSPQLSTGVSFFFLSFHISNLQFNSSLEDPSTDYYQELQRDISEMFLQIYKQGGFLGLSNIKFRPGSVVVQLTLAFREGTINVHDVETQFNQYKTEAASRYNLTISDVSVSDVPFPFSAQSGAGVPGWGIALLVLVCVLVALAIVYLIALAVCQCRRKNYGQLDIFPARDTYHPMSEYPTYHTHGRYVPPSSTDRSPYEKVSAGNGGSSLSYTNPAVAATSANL", "test": "flow cytometry with PE-labeled antibody on tumor cell lines, MESF by PE Quantum Beads"}
{"binder": "anti-MUC-1 (D11-28) antibody, PE-labeled (antibody, human IgG1, lambda, L234A L235A, V domains shown, PE (phycoerythrin) label, site not stated, also called anti-MUC-1 antibody clone (D11-28); anti-MUC-1 PE antibody) VH: EVQLVQSGAEVKKPGASVKVSCKASGYSFTGHYMHWVRQAPGQGLEWMGWIDPVTGGTKYAQKFQGWVTMTRDTSISTAYMELSRLRSDDTAVYYCAREVTGDRGQFDKWGQGTLVTVSS VL: SYVLTQPPSVSVAPGKTARITCGGNNIGSKSVHWYQQKPGQAPVLVIYYGSNRPSGIPERFSGSNSGNTATLTISRVEAGDEADYYCQVWDSSSDWVFGGGTKLTVLG", "values": [{"measurement": "binding result", "result": "binds"}]}
